# Paper PMC10204968
# Molecular target: Hfq (His6-Hfq) (Histophilus somni strain 2336) (UniProt B0UTF5)
# Assay: EMSA
# Conditions: 10 mM Tris-HCl pH 7.4, 6% glycerol, 50 ug/ml BSA, 0.75 ug baker's yeast tRNA, 200 ng sRNA, 15 ul, room temperature 30 min; 6% native PAGE, 0.5x TBE, GelGreen …
# Hfq (His6-Hfq) (Histophilus somni strain 2336), sequence (B0UTF5 whole entry): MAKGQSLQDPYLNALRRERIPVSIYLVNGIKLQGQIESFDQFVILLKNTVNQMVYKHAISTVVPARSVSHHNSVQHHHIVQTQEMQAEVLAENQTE
sequence,measurement,value
GGGAAUAAUACUGAAUAAUAGCUAUAUUACGACAAAGGGCGUAAGCUGCCACAAGUGCUACUUAAUCGGGCGUAAGCUGCCAUAAGUGCUACUUAAUUAGGUGCAAGCUACCGUAAGUGCUGAAGAAAAGAUGCCUAACGGCAUCUUUUUUUUGCU [HS9 sRNA],binding,binds
GGGCGCUGGCAGGCUAAUGACUAAUAAGAUGAUAACUAGGAUAAUGUAUUUAAACAUUGUGUUAUCCUCUUCAAAGUUGGGUGGAUUGAAGGUCGCACCCAGCUCGUUUCCGCAGUAUUGCGAAAACAAGAAUAUUAUAGGUCGUUUUAUAUUUCUGGUCAAGGAAUAAAACGACCUAUUUUUUAUUUGAC [HS97 sRNA],binding,binds
